First the molecules themselves.
B1: AB-009108 (antibody, V domains shown)
VH: QVQLQESGPGLVKPSETLALTCTVSGDSIINNNFYWGWLRQPPGQGLEWIGSLFHTGSAYYNSSLKSRVRSSVDTARNQISLRLSSVTAADTAVYYCARVNIVSVPAPPGAIEGWFDPWGQGTRVTVSP
VL: SYELTQPPSVSVSLGQTARISCSGDALPTKYVHWYQQKAGQAPVVVIFRDTERPSEIPERFSGSSSGTTVTLTISGVQAEDEADYYCQSVDGSGFYVFGSGTKVTVL
B2: AB-009174 (antibody, V domains shown)
VH: QVQLQQWGAGLLKPSETLSLTCAVYGESFSGYYWNWIRQPPGKGLEWIGEIDQSGSTNYNPSLKSRVTISVDTSKNQFSLKLTSVTAADTAVYYCARVSGRMQLWLRAGYMDVWDKGTTVTVSS
VL: QSALTQPASVSGSPGQSITISCTGTSSDVGRYNYVSWYQQHPGKAPKLMIYEVSNRPSGVSNRFSGSKSGNTASLTISGLQAEDEADYYCSSYTTSSTRVFGGGTKLTVL
B3: AB-009244 (antibody, V domains shown)
VH: EVQLVESGGGLVQPGGSLRLSCAASGFAFNTYGINWVRQAPGKGLEWVSFISSRSTTIHYADSVRGRFTISRDNAKNSLYLQMNNLRDEDTAVYYCARDLLIWFGETGAFDIWGQGTMVTVSS
VL: EVVMTQSPATLSVSSGERVTLSCRASQSVSNNLAWYQQKPGQAPRLLIYGASTRATGFPARFSGSGSGTEFTLTISSLQSEDFAVYYCQQYNIWPPGTFGQGTKLEIK
B4: AB-009627 (antibody, V domains shown)
VH: QVQLQQWGAGLLKPSETLSLTCAVYGGSFSGYYWSWIRQPPGKGLEWIGEINHSGSTNYNPSLKSRVTISVDTSKNQFSLKLSSVTAADTAVFYCARGGYSSSWYGEKYWFDPWGQGTLVTVSS
VL: QSALTQPRSVSGSPGQSVTISCTGTSSDVGGYNYVSWYQQHPGKAPKLMIYDVSKRPSGVPDRFSGSKSGNTASLTISGLQAEDEADYYCCSYAGSPYVFGTGTKVTVL
B5: AB-009202 (antibody, V domains shown)
VH: QVQLVESGGGVVQPGRSLRLSCAASGFTFSSYGMHWVRQAPGKGLEWVAVIWYDGSNKYYADSVKGRFTISRDNSKNTLYLQMNSLRAEDTAVYYCARDGGPEYYFDYWGQGTLVTVSS
VL: SYELTQPPSVSVSPGQTARITCSGDALPKQYAYWYQQKPGQAPVLVIYKDSERPSGIPERFSGSSSGTTVTLTISGVQAEDEADYYCQSADSSGTYNVVFGGGTKLTVL
B6: AB-009231 (antibody, V domains shown)
VH: EVQLVESGGGLVQPGGSLRLSCAASGFTFSSYWMSWVRQAPGKGLEWVANIKQDGSEKYYVDSVKGRFTISRDNAKNSLYLQMNSLRAEDTAVYYCARVSMRFLEWSFYYYYYMDVWGKGTTVTVSS
VL: SSELTQDPAVSVALGQTVRITCQGDSLRSYYASWYQQKPGQAPVLVIYGKNNRPSGIPDRFSGSSSGNTASLTITGAQAEDEADYYCNSRDSSGNHLGVVFGGGTKLTVL
B7: AB-009237 (antibody, V domains shown)
VH: QVQLLQSGAEVKKPGASVSVSCKASGFTFTSYYFHWVRQAPGQGLEWMGIVSPAGGSTNYAQKFQGRVTMTRDTSTSTVHMELRNVRYDDTAVFYCARSVYCSSPSCPHGMDVWGPGTMVTVSS
VL: DIQVTQSPSTLSASVGDRVTITCRASQSILTYLAWYQQKPGKAPNLLIYKASNLQSGVPSRFSGSGSGTEFTLTISSLQPDDFATYHCQQYKSYPFSFGQGTKLAIK

The test has as its target SARS-CoV-2 Spike (S) trimer (SARS-CoV-2), P0DTC2. Description: ELISA, S trimer coated, 1:50 dilution. Conditions: remark: other sources report otherwise.
In turn, B1 registered an Optical Density (OD; 450 nm) of 0.28 OD450. For B2, the Optical Density (OD; 450 nm) was 0.154 OD450.

The molecule B3 yielded an Optical Density (OD; 450 nm) of 0.239 OD450.

In turn, B4 yielded an Optical Density (OD; 450 nm) of 0.823 OD450. To B5 belongs 1.99 OD450; to B6, 0.46 OD450; to B7, 0.228 OD450.

(Values after patent US20240025971A1.)
